Biological target: thyroglobulin

Chain of SNA (natural lectin, not treated with PNGaseF) (Q41358 29-289): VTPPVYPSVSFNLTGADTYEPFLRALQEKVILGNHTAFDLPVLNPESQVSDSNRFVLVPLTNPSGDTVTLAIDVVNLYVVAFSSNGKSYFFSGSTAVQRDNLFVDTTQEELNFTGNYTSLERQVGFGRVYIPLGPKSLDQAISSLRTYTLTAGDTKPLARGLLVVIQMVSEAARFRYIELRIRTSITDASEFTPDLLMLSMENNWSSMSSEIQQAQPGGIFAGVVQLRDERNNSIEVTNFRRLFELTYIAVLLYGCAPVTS
Chain of SNA (natural lectin, not treated with PNGaseF) (Q41358 309-570): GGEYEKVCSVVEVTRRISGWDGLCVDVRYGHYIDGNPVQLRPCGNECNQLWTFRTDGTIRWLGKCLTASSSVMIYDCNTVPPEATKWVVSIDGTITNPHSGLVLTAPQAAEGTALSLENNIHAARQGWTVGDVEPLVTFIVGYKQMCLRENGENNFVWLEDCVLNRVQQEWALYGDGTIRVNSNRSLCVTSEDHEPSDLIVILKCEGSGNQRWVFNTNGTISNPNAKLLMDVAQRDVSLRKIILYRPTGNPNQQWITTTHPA
Chain of SNA treated with PNGaseF (sugar chain-removed natural lectin) (Q41358 29-289): as the sequence (Q41358 29-289) above
Chain of SNA treated with PNGaseF (sugar chain-removed natural lectin) (Q41358 309-570): as the sequence (Q41358 309-570) above

For “MCA (natural lectin, not treated with PNGaseF)”, the S/N Ratio was 3.1.

For “MCA treated with PNGaseF (sugar chain-removed natural lectin)”, the S/N Ratio was 6.5.

Substance “SNA (natural lectin, not treated with PNGaseF)” has a S/N Ratio of 1.5.

For “SNA treated with PNGaseF (sugar chain-removed natural lectin)”, the S/N Ratio was 6.

“SSA (natural lectin, not treated with PNGaseF)” showed a S/N Ratio of 1.9.

“SSA treated with PNGaseF (sugar chain-removed natural lectin)” gave a S/N Ratio of 8.
